According to patent US20110239331A1:

Key:
[1] = molecular target: mouse trigeminal (sensory) neuron calcium channels (ICa) (mouse); experiment: cell-based or functional assay
[2] = molecular target: bee brain calcium channels (Apis mellifera brain neurons, ICa) (Apis mellifera); experiment: cell-based or functional assay

How did the EC50 for inhibition of a component of ICa in mouse sensory neurons [1] turn out when “ω-agatoxin-IVA (from UniProt P30288 1-48) (peptide)” was run?
The EC50 for inhibition of a component of ICa in mouse sensory neurons was 20 nM.

What about the maximum ICa inhibition in mouse sensory neurons [1] of the same substance?
The maximum ICa inhibition in mouse sensory neurons was 40%.

What about the EC50 for inhibition of ICa in bee neurons [2] of the same substance?
The EC50 for inhibition of ICa in bee neurons was 10 nM.

And the preference for insect versus vertebrate calcium channels (against m4) [2]?
Its preference for insect versus vertebrate calcium channels (against m4) is 2 fold.

omega-atracotoxin-Hv2a (peptide) was tested. Which EC50 for inhibition of ICa [2] did it give?
The EC50 for inhibition of ICa was 0.15 nM.

What about the preference for insect versus vertebrate calcium channels (against m4) [2] of the same substance?
The preference for insect versus vertebrate calcium channels (against m4) was > 50000 fold.
